{"source": "paper doi:10.1101/2024.07.16.603699", "about": "(bioRxiv, 2024)", "binders": {"B1": {"name": "Saccharolobus solfataricus ribosomal protein aS34 (natural protein, UniProt Q97ZK4 1-72, looked up)", "chain": "MSIKNRGSNAYGHLGWLTVYCRICNRKLIIGTDILYKCPKCEKKYSAYFCEADKRGLKGKCPYCGTELVPIL"}}, "assay_in_all_cases": "cryo-EM structure", "key": {"[1]": {"biological_target": "T1, Saccharolobus solfataricus ribosomal protein uS3 (S. solfataricus (endogenous in the …, UniProt Q9UXA0 1-229))", "T1 sequence (looked up)": "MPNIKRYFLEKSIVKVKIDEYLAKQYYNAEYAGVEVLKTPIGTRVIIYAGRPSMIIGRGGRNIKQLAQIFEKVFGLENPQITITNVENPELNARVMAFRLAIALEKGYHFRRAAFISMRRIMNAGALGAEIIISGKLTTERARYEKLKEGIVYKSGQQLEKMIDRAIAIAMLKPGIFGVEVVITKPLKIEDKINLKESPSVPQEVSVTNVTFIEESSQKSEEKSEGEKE"}, "[2]": {"biological_target": "T2, Saccharolobus solfataricus ribosomal protein uS13 (S. solfataricus (endogenous in the …, UniProt P95986 1-165))", "T2 sequence (looked up)": "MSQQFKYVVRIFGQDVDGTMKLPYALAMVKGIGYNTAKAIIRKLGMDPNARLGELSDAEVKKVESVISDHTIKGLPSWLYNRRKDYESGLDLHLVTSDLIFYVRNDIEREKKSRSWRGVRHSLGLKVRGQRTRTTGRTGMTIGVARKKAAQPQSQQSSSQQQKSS"}, "[3]": {"biological_target": "B1"}}, "data": [{"binder": "B1", "values": [{"measurement": "binding result", "setting": "[1]", "value": "binds"}]}, {"binder": "Saccharolobus solfataricus ribosomal protein eS25 (natural protein, UniProt Q97ZZ6 1-110, looked up) MGGASKKPISTMEKRLKKEAEKQQKAEEKKKGPSKTGKEIISRAVTIDEETKKKVLDEIKKESIITPYALATKSGISISVARKILKELENQNVVKLYSKNRRLEIYIAAS", "values": [{"measurement": "binding result", "setting": "[2]", "value": "binds"}]}, {"binder": "Saccharolobus solfataricus ribosomal protein uS14 (natural protein, UniProt Q97ZQ5 1-54, looked up) MGKYKPPAERKYGKGVQSCQRCGSKDSVIQKYGIYLCRQCFREVAYELGFRKYW", "values": [{"measurement": "binding result", "setting": "[3]", "value": "binds"}]}]}
